For the test, the target named is Hsp82p (Saccharomyces cerevisiae Hsp90), N terminal 6xHis tag (Saccharomyces cerevisiae) (UniProt P02829).
Hsp82p (Saccharomyces cerevisiae Hsp90), N terminal 6xHis tag (Saccharomyces cerevisiae), sequence (P02829 whole entry): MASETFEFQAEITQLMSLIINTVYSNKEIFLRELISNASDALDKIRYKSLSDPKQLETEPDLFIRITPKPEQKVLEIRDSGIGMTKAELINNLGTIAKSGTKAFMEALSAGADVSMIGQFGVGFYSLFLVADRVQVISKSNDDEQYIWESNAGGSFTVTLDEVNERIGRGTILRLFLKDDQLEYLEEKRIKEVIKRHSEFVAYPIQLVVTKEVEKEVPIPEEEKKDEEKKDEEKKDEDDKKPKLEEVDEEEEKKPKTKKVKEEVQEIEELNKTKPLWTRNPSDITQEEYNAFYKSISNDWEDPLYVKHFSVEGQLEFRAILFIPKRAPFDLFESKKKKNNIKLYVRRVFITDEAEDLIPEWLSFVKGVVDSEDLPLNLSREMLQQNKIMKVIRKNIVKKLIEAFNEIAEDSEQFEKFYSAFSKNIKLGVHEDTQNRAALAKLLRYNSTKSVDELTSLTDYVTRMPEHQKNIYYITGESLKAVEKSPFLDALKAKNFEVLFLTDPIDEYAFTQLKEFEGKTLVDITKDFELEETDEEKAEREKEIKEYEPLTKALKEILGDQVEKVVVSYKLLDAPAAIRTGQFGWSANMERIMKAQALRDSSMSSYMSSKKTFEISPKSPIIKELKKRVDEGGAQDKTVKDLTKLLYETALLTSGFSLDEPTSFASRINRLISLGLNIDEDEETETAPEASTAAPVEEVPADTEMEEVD

B1: Aha1p^Δ11, C terminal 6xHis tag (domain or fragment)
chain: VDKNCIGWAKEYFKQKLVGVEAGSVKDKKYAKIKSVSSIEGDCEVNQRKGKVISLFDLKITVLIEGHVDSKDGSALPFEGSINVPEVAFDSEASSYQFDISIFKETSELSEAKPLIRSELLPKLRQIFQQFGKDLLATHGNDIQVPESQVKSNYTRGNQKSSFTEIKDSASKPKKNALPSSTSTSAPVSSTNKVPQNGSGNSTSIYLEPTFNVPSSELYETFLDKQRILAWTRSAQFFNSGPKLETKEKFELFGGNVISELVSCEKDKKLVFHWKLKDWSAPFNSTIEMTFHESQEFHETKLQVKWTGIPVGEEDRVRANFEEYYVRSIKLTFGFGAVL
In the case of B1, the apparent affinity (Kapp) from stimulation of the Hsp82p ATPase activity by increasing co-chaperone (1 µM Hsp82p, 2 mM ATP, ATP regenerating system) was determined as 0.44 µM.

B2: Aha1p, C terminal 6xHis tag (natural protein)
chain: MVVNNPNNWHWVDKNCIGWAKEYFKQKLVGVEAGSVKDKKYAKIKSVSSIEGDCEVNQRKGKVISLFDLKITVLIEGHVDSKDGSALPFEGSINVPEVAFDSEASSYQFDISIFKETSELSEAKPLIRSELLPKLRQIFQQFGKDLLATHGNDIQVPESQVKSNYTRGNQKSSFTEIKDSASKPKKNALPSSTSTSAPVSSTNKVPQNGSGNSTSIYLEPTFNVPSSELYETFLDKQRILAWTRSAQFFNSGPKLETKEKFELFGGNVISELVSCEKDKKLVFHWKLKDWSAPFNSTIEMTFHESQEFHETKLQVKWTGIPVGEEDRVRANFEEYYVRSIKLTFGFGAVL
B2: the apparent affinity (Kapp) from stimulation of the Hsp82p ATPase activity by increasing co-chaperone (1 µM Hsp82p, 2 mM ATP, ATP regenerating system) is 1.24 µM.

The record behind these values is article PMC6426937.
